{
  "source": "paper PMC10622425",
  "molecular_target": "M2 protein of human Influenza A virus A/WSN/33 (H1N1), wild type (Influenza A virus A/WSN/33 (H1N1))",
  "note": "Values joined by “and” are separate entries in the source; they are usually repeats but may differ in a detail not shown here. Equal entries are not always repeated.",
  "data": [
    {"substance": "M2 protein of human Influenza A virus A/WSN/33 (H1N1), wild type (natural protein)", "values": [
      {"measurement": "stoichiometry N", "value": "4 and 2 and 3"}
    ]}
  ]
}
